We go through 32 sequences from the supplement of paper PMC10201428.

Data set [1] relates to VchCAST RNA-guided transposition machinery (E. coli BL21(DE3) host, lacZ target). The experiment in a line: relative integration efficiency (T-RL orientation) vs wild-type transposon end (log2 (normalized fold change)); transposon end mutated: right end (5 bp flank + 75 bp right end); higher = more efficient transposition. Put shortly: (§1)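 Relative integration efficiency is a fold change of output over input barcode abundance, normalised to reference barcodes and log-transformed. Input plasmids and genomic integration junctions were PCR-amplified and Illumina-sequenced from E. coli BL21(DE3) co-transformed with a T7-driven effector plasmid and pUC57 donor pools of 1549 left-end or 1849 right-end transposon variants. Plating was done with 0.1 mM IPTG at 37°C for 18 h, with two biological output replicates and four reference barcodes.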

Data set [2] shares this test system. The experiment in a line: relative integration efficiency (T-LR orientation) vs wild-type transposon end (log2 (normalized fold change)); transposon end mutated: right end (5 bp flank + 75 bp right end); higher = more efficient transposition. The gist of the method: as §1

± gives the standard deviation of the averaged measurements.

As to “ACATTTGTTGATACAACCATAAAATGGTAATTCCACCCATAAATTGATAATTATCACACCCAATTTAACTATAACGCTCTGATCATAGTCAGACCAACATTGCTACGACCCGTATTCGCACCGACAC”, the figures for the “relative integration efficiency (log2)” value in data set [1] and in data set [2] were -1.45 ± 0.25 and 2.06 ± 0.044, respectively.

Turning to “ACATTTGTTGATACAACCATAAAATGGTAATTCCACCCATACATTGATAATTATCACACCCAATTTAACTATAACGCTCTGATCATAGTCAGACCAACATTGCTACGACCCGTATTCGCACCGACAC”, the entries for the “relative integration efficiency (log2)” value in data set [1] and in data set [2] were -3.15 ± 0.33 and 0.391 ± 0.15, respectively.

Regarding “ACATTTGTTGATACAACCATAAAATGGTAATTCCACCCCTAAATTGATAATTATCACACCCAATTTAACTATAACGCTCTGATCATAGTCAGACCAACATTGCTACGACCCGTATTCGCACCGACAC”, the “relative integration efficiency (log2)” value in data set [1] was -3.6 ± 0.27; in data set [2], -0.518 ± 0.25.

With “ACATTTGTTGATACAACCATAAAATGGTAATTCCACCCCTACATTGATAATTATCACACCCAATTTAACTATAACGCTCTGATCATAGTCAGACCAACATTGCTACGACCCGTATTCGCACCGACAC”, the “relative integration efficiency (log2)” value in data set [1] was -3.92 ± 0.41; in data set [2], -0.604 ± 0.45.

As to “ACATTTGTTGATACAACCATAAAATGTAAATTACACCCATAAATTGATAATTATCACACCCATAAATTGATATTGCCTCTGATCATAGTCAGACCAACATTGCTACGACCCGTATTCGCACCGACAC”, the “relative integration efficiency (log2)” value was -0.732 ± 0.084 in data set [1] and -0.454 ± 0.18 in data set [2].

Take “ACATTTGTTGATACAACCATAAAATGTATTAATCACCCATAAATTGTATTAATTCACACCCATAAATTGTATAACGCTCTGATCATAGTCAGACCAACATTGCTACGACCCGTATTCGCACCGACAC”: the “relative integration efficiency (log2)” value is -4.24 ± 0.14 in data set [1] and -2.39 ± 0.35 in data set [2].

For “ACATTTGTTGATACAACCATAAAATGTATTTTACACCCATAAATTGATAATTATCACACCCATAAATTGATATTGCCTCTGATCATAGTCAGACCAACATTGCTACGACCCGTATTCGCACCGACAC”, the “relative integration efficiency (log2)” value was -0.938 ± 0.035 in data set [1] and -0.626 ± 0.31 in data set [2].

Turning to “ACATTTGTTGATACAACCATAAAATGTTAATTACACCCATAAATTGTTAATTATCACACCCATAAATTGTTATTGCCTCTGATCATAGTCAGACCAACATTGCTACGACCCGTATTCGCACCGACAC”, the “relative integration efficiency (log2)” value is -2.33 ± 0.29 in data set [1] and -0.437 ± 0.34 in data set [2].

“ACATTTGTTGATACAACCATAAAATTATAATTACACCCATAAATTTATAATTATCACACCCATAAATTTATATTGCCTCTGATCATAGTCAGACCAACATTGCTACGACCCGTATTCGCACCGACAC”: the “relative integration efficiency (log2)” value in data set [1] is -1.23 ± 0.3; in data set [2], 0.398 ± 0.67.

Take “ACATTTGTTGATACAACCATAAAATTATTATTACACCCATTAATTGATAATTATCACACCCAATTTAACTATAACGCTCTGATCATAGTCAGACCAACATTGCTACGACCCGTATTCGCACCGACAC”: the “relative integration efficiency (log2)” value in data set [1] was -2.35 ± 0.18; in data set [2] it was 1.15 ± 0.09.

“ACATTTGTTGATACAACCATAAAATTCGCATTACACCCATAAATTGATAATTATCACACCCATAAATTGATATTGCCTCTGATCATAGTCAGACCAACATTGCTACGACCCGTATTCGCACCGACAC”: the “relative integration efficiency (log2)” value in data set [1] is -2.95 ± 0.25; in data set [2] it was -2.45 ± 0.2.

On to “ACATTTGTTGATACAACCATAAAATTCGCCGGCACAAACGCCCGGTCGCCGGCGACACAAACGCCCGGTCGCGGTAAGAGGATCATAGTCAGACCAACATTGCTACGACCCGTATTCGCACCGACAC”, for which the “relative integration efficiency (log2)” value in data set [1] is -4.45 ± 0.73; in data set [2], -0.949 ± 0.46.

“ACATTTGTTGATACAACCATAAAATTCTAATTACACCCATAAATTGATAATTATCACACCCATAAATTGATATTGCCTCTGATCATAGTCAGACCAACATTGCTACGACCCGTATTCGCACCGACAC”: the figures for the “relative integration efficiency (log2)” value in data set [1] and in data set [2] were -1.85 ± 0.18 and -1.38 ± 0.16, respectively.

As to “ACATTTGTTGATACAACCATAAACGGATAATTACACCCATAAATTGATAATTATCACACCCATAAATTGATATTGCCTCTGATCATAGTCAGACCAACATTGCTACGACCCGTATTCGCACCGACAC”, the “relative integration efficiency (log2)” value is -0.642 ± 0.01 in data set [1] and -0.722 ± 0.72 in data set [2].

In the case of “ACATTTGTTGATACAACCATAAACGTCTAATTACACCCATAAATTGATAATTATCACACCCATAAATTGATATTGCCTCTGATCATAGTCAGACCAACATTGCTACGACCCGTATTCGCACCGACAC”, the entries for the “relative integration efficiency (log2)” value in data set [1] and in data set [2] were -2.72 ± 0.083 and -2.25 ± 0.11, respectively.

As for “ACATTTGTTGATACAACCATAAACTGATAATTACACCCATAAAGTGATAATTATCACACCCATAAAGTGATATTGCCTCTGATCATAGTCAGACCAACATTGCTACGACCCGTATTCGCACCGACAC”, the “relative integration efficiency (log2)” value stood at 0.368 ± 0.095 in data set [1] and 0.264 ± 0.12 in data set [2].

For “ACATTTGTTGATACAACCATAAAGTGATATTTACAACCATAAAATGATAATTATCACAACCATAAAATGATAATTACTCTGATCATAGTCAGACCAACATTGCTACGACCCGTATTCGCACCGACAC”, the “relative integration efficiency (log2)” value in data set [1] amounted to 0.174 ± 0.1; in data set [2], 0.0497 ± 0.074.

With “ACATTTGTTGATACAACCATAAAGTGATATTTACAACCATAAAATGATAATTATCACAACCATAAAGTGATATTTACTCTGATCATAGTCAGACCAACATTGCTACGACCCGTATTCGCACCGACAC”, the “relative integration efficiency (log2)” value came to 0.0289 ± 0.14 in data set [1] and 0.103 ± 0.36 in data set [2].

As to “ACATTTGTTGATACAACCATAAAGTGATATTTACAACCATAAAATGATAATTATCACAACCATAAGTTGATATTTTCTCTGATCATAGTCAGACCAACATTGCTACGACCCGTATTCGCACCGACAC”, the “relative integration efficiency (log2)” value in data set [1] was 0.113 ± 0.034; in data set [2], -0.0726 ± 0.055.

For “ACATTTGTTGATACAACCATAAAGTGATATTTACAACCATAAAATGATAATTATCACAACCATATATTGATATCTCCTCTGATCATAGTCAGACCAACATTGCTACGACCCGTATTCGCACCGACAC”, the “relative integration efficiency (log2)” value in data set [1] was -0.261 ± 0.13; in data set [2], -0.163 ± 0.73.

In the case of “ACATTTGTTGATACAACCATAAAGTGATATTTACAACCATAAAATGATAATTATCACACCCATAAATTGATAATTACTCTGATCATAGTCAGACCAACATTGCTACGACCCGTATTCGCACCGACAC”, the “relative integration efficiency (log2)” value in data set [1] came to 0.346 ± 0.076; in data set [2], 0.307 ± 0.068.

On to “ACATTTGTTGATACAACCATAAAGTGATATTTACAACCATAAAATGATAATTATCACACCCATAAATTGATATTGCCTCTGATCATAGTCAGACCAACATTGCTACGACCCGTATTCGCACCGACAC”, for which the “relative integration efficiency (log2)” value in data set [1] is -0.00564 ± 0.04; in data set [2], -0.097 ± 0.68.

In the case of “ACATTTGTTGATACAACCATAAAGTGATATTTACAACCATAAAATGATAATTATCAGTGGGTATTTAACTATAACGCTCTGATCATAGTCAGACCAACATTGCTACGACCCGTATTCGCACCGACAC”, the “relative integration efficiency (log2)” value is -0.714 ± 0.27 in data set [1] and 2.86 ± 0.12 in data set [2].

Consider “ACATTTGTTGATACAACCATAAAGTGATATTTACAACCATAAAGTGATATTTATCACAACCATAAAATGATAATTACTCTGATCATAGTCAGACCAACATTGCTACGACCCGTATTCGCACCGACAC”, for which the “relative integration efficiency (log2)” value was 0.0579 ± 0.16 in data set [1] and 0.11 ± 0.34 in data set [2].

Turning to “ACATTTGTTGATACAACCATAAAGTGATATTTACAACCATAAAGTGATATTTATCACAACCATAAAGTGATATTTACTCTGATCATAGTCAGACCAACATTGCTACGACCCGTATTCGCACCGACAC”, the “relative integration efficiency (log2)” value in data set [1] is 0.0208 ± 0.11; in data set [2], 0.061 ± 0.087.

On to “ACATTTGTTGATACAACCATAAAGTGATATTTACAACCATAAAGTGATATTTATCACAACCATAAGTTGATATTTTCTCTGATCATAGTCAGACCAACATTGCTACGACCCGTATTCGCACCGACAC”, for which the “relative integration efficiency (log2)” value was 0.0887 ± 0.14 in data set [1] and -0.279 ± 0.16 in data set [2].

With “ACATTTGTTGATACAACCATAAAGTGATATTTACAACCATAAAGTGATATTTATCACAACCATATATTGATATCTCCTCTGATCATAGTCAGACCAACATTGCTACGACCCGTATTCGCACCGACAC”, the figures for the “relative integration efficiency (log2)” value in data set [1] and in data set [2] were 0.115 ± 0.19 and 0.458 ± 0.14, respectively.

As for “ACATTTGTTGATACAACCATAAAGTGATATTTACAACCATAAAGTGATATTTATCACACCCATAAATTGATAATTACTCTGATCATAGTCAGACCAACATTGCTACGACCCGTATTCGCACCGACAC”, the “relative integration efficiency (log2)” value in data set [1] came to 0.0651 ± 0.0083; in data set [2] it was 0.289 ± 0.082.

As for “ACATTTGTTGATACAACCATAAAGTGATATTTACAACCATAAAGTGATATTTATCACACCCATAAATTGATATTGCCTCTGATCATAGTCAGACCAACATTGCTACGACCCGTATTCGCACCGACAC”, the “relative integration efficiency (log2)” value in data set [1] was -0.0388 ± 0.082; in data set [2] it was -0.0332 ± 0.27.

Regarding “ACATTTGTTGATACAACCATAAAGTGATATTTACAACCATAAAGTGATATTTATCAGTGGGTATTTAACTATAACGCTCTGATCATAGTCAGACCAACATTGCTACGACCCGTATTCGCACCGACAC”, the “relative integration efficiency (log2)” value is -0.497 ± 0.26 in data set [1] and 2.91 ± 0.034 in data set [2].

Take “ACATTTGTTGATACAACCATAAAGTGATATTTACAACCATAAGTTGATATTTTTCACAACCATAAAATGATAATTACTCTGATCATAGTCAGACCAACATTGCTACGACCCGTATTCGCACCGACAC”: the “relative integration efficiency (log2)” value in data set [1] is -0.0427 ± 0.12; in data set [2] it was 0.217 ± 0.045.

Regarding “ACATTTGTTGATACAACCATAAAGTGATATTTACAACCATAAGTTGATATTTTTCACAACCATAAAGTGATATTTACTCTGATCATAGTCAGACCAACATTGCTACGACCCGTATTCGCACCGACAC”, the “relative integration efficiency (log2)” value in data set [1] was 0.0395 ± 0.16; in data set [2], 0.0534 ± 0.15.
